In patent publication US20200332306:

Experiments:
[1] = biological target: Sth7710 Type I-E Cascade plus Cas3 nickase (Streptococcus thermophilus DGCC7710) (UniProt F2XG53); experiment: cell_activity
[2] = system: Sth7710 Type I-E Cascade, Cas5, Cas6 and Cse1 each AtCBF1-linked (Streptococcus thermophilus DGCC7710); experiment: cell_activity; conditions: PAM AA 5'; value for R1 guides pooled (A2+, A4+, A1-); SE 18.9; no-guide control 0

| Sequence | activity (% mutant reads) ([1]; paired nicking A4+/A3-, PAM not printed for A3-) | activity (% mutant reads) ([1]; paired nicking A4+/A1-, PAM AA 5') | activity (anthocyanin positive cells) [2] | activity (% mutant reads) ([1]; paired nicking A2+/A3-, A2+/A1- pair gave 0.02%, PAM AA 5') |
| --- | --- | --- | --- | --- |
| GUGAUCCNNNNNNNNNNNNNNNNNNNNNNNNNNNNNNNNNGUUUUUCCCGCACACGCGGGGCACUACUGCUGUUCAUGUACAGUUUAAGCACUA / CACTACTGCTGTTCATGTACAGTTTAAGCACTA / TAGTGCTTAAACTGTACATGAACAGCAGTAGTG [R1 A3- guide RNA ; R1 A3- protospacer] | 0.03 | – | – | – |
| GUGAUCCNNNNNNNNNNNNNNNNNNNNNNNNNNNNNNNNNGUUUUUCCCGCACACGCGGGGCAGCAGUAGUGUUACAGAAGCUAAACUCAACCA / CAGCAGTAGTGTTACAGAAGCTAAACTCAACCA / TGGTTGAGTTTAGCTTCTGTAACACTACTGCTG [R1 A4+ guide RNA ; R1 A4+ protospacer] | – | 0.06 | 153 | – |
| GUGAUCCNNNNNNNNNNNNNNNNNNNNNNNNNNNNNNNNNGUUUUUCCCGCACACGCGGGGGAGGGUCUACUUCCAUCACCGUCUUGCUCGGUC / GAGGGTCTACTTCCATCACCGTCTTGCTCGGTC / GACCGAGCAAGACGGTGATGGAAGTAGACCCTC [R1 A2+ guide RNA ; R1 A2+ protospacer] | – | – | 153 | 0.06 |
| GUGAUCCNNNNNNNNNNNNNNNNNNNNNNNNNNNNNNNNNGUUUUUCCCGCACACGCGGGGUUUAUGGACAGAGCUCCAAGUGACCGAGCAAGA / TTTATGGACAGAGCTCCAAGTGACCGAGCAAGA / TCTTGCTCGGTCACTTGGAGCTCTGTCCATAAA [R1 A1- guide RNA ; R1 A1- protospacer] | – | – | 153 | – |
